Results: patent US20140056903A1 (Regeneron, published 2014)

T1: human GFRα3 expressed with a C-terminal mFc tag (human)
T1 construct: also called hGFRα3-mFc
T1 chain: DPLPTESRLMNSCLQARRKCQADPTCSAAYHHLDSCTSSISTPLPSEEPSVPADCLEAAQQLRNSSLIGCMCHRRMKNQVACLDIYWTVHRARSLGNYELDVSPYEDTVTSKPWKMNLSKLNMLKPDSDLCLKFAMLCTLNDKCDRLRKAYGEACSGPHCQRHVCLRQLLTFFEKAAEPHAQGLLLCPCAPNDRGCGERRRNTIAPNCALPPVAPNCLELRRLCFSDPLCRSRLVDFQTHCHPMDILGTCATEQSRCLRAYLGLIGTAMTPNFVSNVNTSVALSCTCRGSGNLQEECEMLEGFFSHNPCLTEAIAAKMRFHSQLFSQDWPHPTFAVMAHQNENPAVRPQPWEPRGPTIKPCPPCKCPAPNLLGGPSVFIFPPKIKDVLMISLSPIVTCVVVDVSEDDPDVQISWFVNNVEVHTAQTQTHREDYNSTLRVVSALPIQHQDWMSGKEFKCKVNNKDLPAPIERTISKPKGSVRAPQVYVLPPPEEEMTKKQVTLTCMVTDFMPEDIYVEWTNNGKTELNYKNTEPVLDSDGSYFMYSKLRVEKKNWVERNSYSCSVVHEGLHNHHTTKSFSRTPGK


Assays:
[1] = target: T2, human GFRα3 expressed with a C-terminal myc-myc-hexahistidine tag (human, UniProt O60609 32-374, biotinylated (sites not given) in ELISA format 2 and in the Octet cross-competition; not in SPR); experiment: SPR, Ab captured, 25C
T2 construct: also called hGFRα3-mmh; hGFRα3-mmH
Experimental: (§1) Antibodies were tested for binding to human GFRα3 expressed with either a C-terminal myc-myc-hexahistidine tag (hGFRα3-mmh; SEQ ID: 370, a C-terminal hFc tag (hGFRα3-hFc; SEQ ID:371), or a C-terminal mFc tag (hGFRα3-mFc; SEQ ID:372), as well as monkey GFRα3 expressed with a C-terminal myc-myc-hexahistidine tag (MfGFRα3-mmh; SEQ ID:373). Anti-GFRα3 antibodies were captured on either a goat anti-mouse IgG polyclonal antibody (GE Healthcare, #BR-1008-38) or a mouse anti-human IgG monoclonal antibody (GE Healthcare, #BR-1008-39) surface created through direct amine coupling to a Biacore CM5 sensor chip. Kinetic experiments were carried out using HBS-EP (10 mM HEPES, 150 mM NaCl, 3 mM EDTA, 0.05% Surfactant P20, at pH 7.4) or PBS buffer containing 0.05% v/v surfactant P20 as both the running buffer and the sample buffer. Binding to human GFRα3-mmh or monkey GFRα3-mmh was evaluated by injecting several concentrations ranging from 200 to 7.4 nM (3-fold dilutions) across the captured antibody surface. Binding to human GFRα3-mFc or human GFRα3-hFc was evaluated by injecting several concentrations ranging from 100 to 3.7 nM (3-fold dilutions) across the captured antibody surface. Antibody-antigen association was monitored for up to 4 minutes, while dissociation in buffer was monitored for up to 20 minutes. Kinetic association (kₐ) and dissociation (kd) rate constants were determined by processing and fitting the data to a 1:1 binding model using Scrubber 2.0c curve fitting software. Binding dissociation equilibrium constants (KD) and dissociative half-lives (t_{1/2}) were calculated from the kinetic rate constants as: KD (M)=kd/kₐ and t_{1/2} (min)=[ln 2/(60*kd)].

[2] = target: T2, human GFRα3 expressed with a C-terminal …; experiment: Octet cross-competition; biotin-hGFRα3-mmH pre-saturated with first antibody H4H2291S
Experimental: (§2) A cross-competition assay was conducted to assess the ability of select antibodies to compete with one another for binding to human GFRα3 using an Octet RED384 biosensor (Fortebio Inc.). The entire experiment was performed at 25° C. with the flow rate of 1000 rpm in Octet HBST buffer (0.01 M HEPES pH7.4, 0.15M NaCl, 3 mM EDTA, 0.05% v/v Surfactant P20, 0.1 mg/mL BSA). To assess whether 2 antibodies were able to compete with one another for binding to their respective epitopes on biotinylated recombinant human GFRα3 expressed with a C-terminal myc-myc-hexahistidine tag (biotin-hGFRα3-mmH; SEQ ID:370), around ˜1.2 nm of biotin-hGFRα3-mmH was first captured onto streptavidin-coated Octet sensor tips (Fortebio Inc, #18-5019) by submerging the tips for 1 minute into a 10 μg/mL solution of biotin-hGFRα3-mmH. The antigen coated sensor tips were then placed into wells containing 25 μg/mL solution of a first anti-GFRα3 monoclonal antibody for 4 minutes to saturate the biotin-hGFRα3-mmH surface. The sensor tips were then subsequently dipped into wells containing 25 μ/mL solution of a second anti-GFRα3 monoclonal antibody. The sensor tips were washed in Octet HBST buffer in between every step of the experiment. The real-time binding response was monitored during the course of the experiment and the binding response at the end of every step was recorded as shown in FIG. 9. The response of mAb-2 binding to biotin-hGFRα3-mmH pre-complexed with the first antibody was compared and competitive/non-competitive behavior of different anti-GFRα3 monoclonal antibodies was determined.

[3] = target: T2, human GFRα3 expressed with a C-terminal …; experiment: Octet cross-competition; biotin-hGFRα3-mmH pre-saturated with first antibody H4H2292S
Experimental: as §2

[4] = target: T1, human GFRα3 expressed with a C-terminal …; experiment: SPR, Ab captured, 25C
Experimental: as §1

Row | Kd [1] | koff [1] | kon [1] | t1/2 [1] | binding response of second antibody (nm) [2] | binding response of second antibody (nm) [3] | Kd [4] | koff [4] | kon [4] | t1/2 [4] | Binder
1 | 0.253 nM | 0.000233 s⁻¹ | 922000 M⁻¹ s⁻¹ | 0.833 h | 0.01 nm | 2.24 nm | – | – | – | – | H4H2236N3 (antibody, human IgG4, V domains shown, human IgG4 Fc (H4H)) VH: EVQLLESGGNLVQPGGSLRLSCAASGFTFSSYAMTWVRQAPGKGLEWVSTISGSGTSTYYADSVKGRFTISRDNSRDTVFLQMNSLRAEDTAVYYCSKPSALRFLHWLAMDVWGQGTLVTVSS VL: DIQMTQSPSSLSAFVGDRVTITCRASQDIRNYLDWFQQKPGKAPKSLIYAASNLQSGVPSRFGGSGSGTDFTLTINSLQPEDFVTYYCQQYNSYPPTFGGGTKVEIK
2 | 2.92 nM | 0.00078 s⁻¹ | 267000 M⁻¹ s⁻¹ | 0.25 h | 0 nm | 1.91 nm | – | – | – | – | H4H2243N2 (antibody, human IgG4, V domains shown, human IgG4 Fc (H4H)) VH: QVQLVQSGAEVKKPGASVKVSCKASGYTFTSYGIIWVRQAPGQGLEWMGWISGYNGNTNYAQNLQGRVTMTTDTSTTTAYMELRSLRSDDTAVYYCARWGIATRPYYYYGMDVWGQGTTVTVSS VL: DIQMTQSPSSLSASVGDRVTITCRASQDITNYLAWFQQKPGKAPKSLIYAASSLQSGVPSKFSGSGSGTDFTLTISSLQPEDFATYYCQQYNSYPPTFGPGTKVDIK
3 | 1.68 nM | 0.000267 s⁻¹ | 159000 M⁻¹ s⁻¹ | 0.717 h | – | – | ≤ 0.00168 nM | ≤ 1e-06 s⁻¹ | 596000 M⁻¹ s⁻¹ | 192 h | H4H2341S (antibody, human IgG4, V domains shown, human IgG4 Fc (H4H)) VH: EVQLVESGAEVKKSGSSVKVSCKASGGTFSRYAISWVRQAPGQGLEWMGGIIPLFGTLNYAQKFQGRVTLTTDESTSTAYMELSSLRSEDTAVYYCAVFYYGSGSYRNWFDPWGQGTLVTVSS VL: not shown
4 | 29.7 nM | 0.00323 s⁻¹ | 109000 M⁻¹ s⁻¹ | 0.0667 h | – | – | 0.0584 nM | 3.01e-05 s⁻¹ | 516000 M⁻¹ s⁻¹ | 6.4 h | H4H2345S (antibody, human IgG4, V domains shown, human IgG4 Fc (H4H)) VH: EVQLVESGGGLVRPGRSLRLSCAASGFTFDNYAMHWVRQVPGKGLEWVSGITWNSVSLGYADSVKGRFTISRDNAQNSLYLQMNSLRTVDTALYYCAKDRWGGSYYFDFWGQGTLVTVSS VL: DIVMTQSPSSLSASVGDRVTITCRASQGISNYLAWYQQKPGKVPKLLIYSASTLQSGVPSRFSGSGSGTDFTLTISNLQPEDFATFFCQKYNSAPTFGGGTKVEIK
5 | – | – | – | – | 1.96 nm | 1.78 nm | – | – | – | – | H4H2212N (antibody, human IgG4, V domains shown, human IgG4 Fc (H4H)) VH: EVQLLESGGGLVQPGGSLRLSCAASGFTFSSYAMSWVRQGPGKGLEWVSGISGSGGSTYNADSVKGRFTISRDNSKNTLYLQMNSLRAEDTAVYYCAKDSGTYWYYFDYWGQGILVTVSS VL: not shown
6 | 1.31 nM | 0.00024 s⁻¹ | 183000 M⁻¹ s⁻¹ | 0.8 h | – | – | 0.00269 nM | 1.56e-06 s⁻¹ | 579000 M⁻¹ s⁻¹ | 123 h | H4H2344S (antibody, human IgG4, V domains shown, human IgG4 Fc (H4H)) VH: EVQLVESGGGVVQPGRSLRLSCAASGFSFSDYVMHWVRQAPGKGLEWVASIWFDGSNEFYADSVKGRFTISRDNSKNTLFLQMNSLRAEDTAVYYCAKKGVLVATSAFDIWGQGTMVTVSS VL: DIQMTQSPSSLSASVGDRVTITCRASQSINNYLNWYHQKPGKAPKLLIYAASSLQSGVPSRFSGSGSGTDYTLTISSLQPEDFGNYYCQQSYRTSMYTFGQGTKVEIK
7 | 0.43 nM | 7.99e-05 s⁻¹ | 186000 M⁻¹ s⁻¹ | 2.42 h | – | – | 0.0222 nM | 1.44e-05 s⁻¹ | 647000 M⁻¹ s⁻¹ | 13.4 h | H4H2346S (antibody, human IgG4, V domains shown, human IgG4 Fc (H4H)) VH: QVQLVESGGGVVQPGRSLRLSCAASGFSFSDYVMHWVRQAPGKGLEWVASIWFDGSNEFYADSVKGRFTISRDNSKNTLFLQMNSLRAEDTAVYYCAKKGVLVATSAFDIWGQGTMVTVSS VL: EIVMTQSPSSLSASVGDRVTITCRASQSINNYLNWYHQKPGKAPKLLIYAASSLQSGVPSRFSGSGSGTDYTLTISSLQPEDFGNYYCQQSYRTSMYTFGQGTKVEIK
8 | 0.219 nM | 0.000127 s⁻¹ | 581000 M⁻¹ s⁻¹ | 1.52 h | – | – | 0.00159 nM | 1.93e-06 s⁻¹ | 1.22e+06 M⁻¹ s⁻¹ | 99.8 h | H4H2293P (antibody, human IgG4, V domains shown, human IgG4 Fc (H4H)) VH: QVQLVESGGGVVQPGRSLRLSCAASGFSFSDYVMHWVRQAPGKGLEWVASIWFDGSNELYADSVKGRFTISRDNSKNTLFLQMNSLRAEDTAVYYCAKKGVLVATSAFHIWGQGTMVTVSS VL: AIQMTQSPSSLSASVGDRVTITCRASQNINNYLNWYHQKPGKAPNLLIYAASSLQSGVPSRFSGSGSGTDYTLTISSLQPEDFGNYYCQQSYSTSMYTFGQGTKLEIK
9 | 0.548 nM | 0.00011 s⁻¹ | 200000 M⁻¹ s⁻¹ | 1.75 h | – | – | 0.0189 nM | 1.09e-05 s⁻¹ | 580000 M⁻¹ s⁻¹ | 17.6 h | H4H2354S (antibody, human IgG4, V domains shown, human IgG4 Fc (H4H); also called H4H2354S-1) VH: QVQLVESGGGVVQPGRSLRLSCAASGFSFSDYVMHWVRQAPGKGLEWVASIWFDGSNEFYADSVKGRFTISRDNSKNTLFLQMNSLRAEDTAVYYCAKKGVLVATSAFDIWGQGTMVTVSS VL: DIQLTQSPSSLSASVGDRVTITCRASQSINNYLNWYHQKPGKAPKLLIYAASSLQSGVPSRFSGSGSGTDYTLTISSLQPEDFGNYYCQQSYRTSMYTFGQGTKVEIK
10 | 0.104 nM | 3.67e-05 s⁻¹ | 353000 M⁻¹ s⁻¹ | 5.25 h | – | – | ≤ 0.0013 nM | ≤ 1e-06 s⁻¹ | 771000 M⁻¹ s⁻¹ | 192 h | H4H2364S (antibody, human IgG4, V domains shown, human IgG4 Fc (H4H)) VH: EVQLVESGGGLEQPGGSLRLSCAASGFTFSSYVMSWVRQVPGKGLEWVSVISGSGGSTYYADSVKGRFTISRDNSKNTLYLQMNSLRAEDTAVYYCAKPSSYSSSNFHYGMDVWGQGTTVTVSS VL: DIQMTQSPYSVSASVGDRVTITCRASQGISSWLAWYQQKPGRAPKLLIYAASSLQSGVPSRFSGSGSGTDFTLTISSLQPEDFATYYCQKTNSFPFTFGPGTKVEIK
